Target: T1, peptide on HLA-A*11:01 (human)
T1 peptide: VVVGAVGVGK
Test: activation reporter or marker
Description: Jurkat NFAT-Luciferase effector cells (JNL) cells were transfected on day 1 with TCR or CAR constructs using standard protocols for the Neon™ transfection system (ThermoFisher MPK5000). T2 HLA-A*11 target cells were loaded with peptide […] (SEQ ID NO: 110). Peptides were resuspended in DMSO, and serially-diluted 20 times, 3× per dilution. Serially diluted peptide solutions were added to T2 HLA-A*11 cells resuspended in peptide-loading media (RPMI 1640+1% BSA+1×P/S). This yielded peptide-loaded T2 HLA-A*11 cells at approximately ˜0.67E6/mL, with peptide concentrations ranging from ˜10 fM to 100 μM, including a control at 0 μM. Peptide-loaded T2 HLA-A*11 cells were incubated overnight at 37° C. in 384-well plates, plated at 10,000 cells per well (Corning 3570). On day 2, transfected JNL cells (10,000 cells/well) were added to the peptide-loaded T2 HLA-A*11 cells to a final volume of 30 μL. After a 6-hour incubation at 37° C., the One-Step™ Luciferase assay system (Firefly luciferase, BPS Bioscience, 60690) was used to determine luminescence intensity on a Tecan Infinite® M1000.

B1: Positive Control TCR (TRAV3-3*01/TRBV4*01) (TCR, V domains shown)
Valpha: GEQVEQRPPHLSVREGDSAVITCTYTDPNSYYFFWYKQEPGASLQLLMKVFSSTEINEGQGFTVLLNKKDKRLSLNLTAAHPGDSAAYFCAVSGGTNSAGNKLTFGIGTRVLVRP
Vbeta: ETAVFQTPNYHVTQVGNEVSFNCKQTLGHDTMYWYKQDSKKLLKIMFSYNNKQLIVNETVPRRFSPQSSDKAHLNLRIKSVEPEDSAVYLCASSRDWGPAEQFFGPGTRLTVL
  binding result: recognises

Source: patent publication US20240180969A1 (published 2024)
